Experiments:
[1] = target: fibronectin (human (endogenous in dHL-60)) (UniProt P02751)
[2] = target: fibronectin (human (endogenous in dHL-60)) (UniProt P02751); remark: listed apart in the source

adhesion of K562 cells to NETs coated plates (NETs from dHL-60 stimulated in serum free conditions), percentage of adherent cells [1]: 62%
adhesion of K562 cells to NETs coated plates (serum free NETs) with anti-integrin blocking Ab, percentage of adherent cells [1]: 10%
adhesion of K562 cells to NETs coated plates (NETs from dHL-60 stimulated with 10% FBS), percentage of adherent cells [2]: 59%
adhesion of K562 cells to NETs coated plates with anti-α5β1 blocking antibody (P1D6), percentage of adherent cells [2]: 24%
Substance: integrin α5β1 (from UniProt P08648 42-1049; P05556 21-798) (receptor)

— article PMC5293257
